Columns and labels:
[1] = target: T1, hCA-IX fragment 2 (aa 38-136, +PG+) displayed on yeast as Aga2-HA-CA9-MYC (pPNL6), clone 2B (human, UniProt P32781 19-87; Q16790 38-136); test: YSD whole yeast cell ELISA, native
T1 construct: not shown: HA tag; MYC tag

rhCA-IV = target: T2, rhCA-IV (human, UniProt P22748 19-283, limits assumed); test: SPR, antibody captured by anti-human Fc
T2 construct: Bought; construct not described; also called recombinant human CA-IV

rhCA-XII = target: T3, rhCA-XII (human, UniProt O43570 25-291, limits assumed); test: SPR, antibody captured by anti-human Fc
T3 construct: Bought; construct not described; also called recombinant human CA-XII (Sino Biologics)

rhCA-XIV = target: T4, rhCA-XIV (human, UniProt Q9ULX7 16-290, limits assumed); test: SPR, antibody captured by anti-human Fc
T4 construct: Bought; construct not described; also called recombinant human CA-XIV

rmCA-IX = target: T5, rmCA-IX (murine, UniProt Q8VHB5 32-389, limits assumed); test: SPR, antibody captured by anti-human Fc
T5 construct: Bought; construct not described; also called recombinant murine (rm)CA-IX

[2] = target: T6, hCA-IX PG domain fragment #1 (aa 37-51) displayed on yeast as Aga2-HA-CA9-MYC (pPNL6), clone 1 A + B (human, UniProt P32781 19-87 (Saccharomyces cerevisiae entry)); test: YSD whole yeast cell ELISA, native PG tiling fragment;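 note: monoclonal antibody binding to intact yeast cells displaying the fragment, read by ELISA, with the anti-CA-IX signal normalized against the anti-MYC display signal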
T6 construct: not shown: HA tag; MYC tag

[3] = target: T7, hCA-IX PG domain fragment #2 (aa 47-61) displayed on yeast as Aga2-HA-CA9-MYC (pPNL6), clone 2 A + B (human, UniProt P32781 19-87 (Saccharomyces cerevisiae entry)); test: as above
T7 construct: not shown: HA tag; MYC tag

[4] = target: T8, hCA-IX PG domain fragment #3 (aa 57-71) displayed on yeast as Aga2-HA-CA9-MYC (pPNL6), clone 3 A + B (human, UniProt P32781 19-87 (Saccharomyces cerevisiae entry)); test: as above
T8 construct: not shown: HA tag; MYC tag

[5] = target: T9, hCA-IX PG domain fragment #4 (aa 67-81) displayed on yeast as Aga2-HA-CA9-MYC (pPNL6), clone 4 A + B (human, UniProt P32781 19-87 (Saccharomyces cerevisiae entry)); test: as above
T9 construct: not shown: HA tag; MYC tag

[6] = target: T10, hCA-IX PG domain fragment #5 (aa 77-91) displayed on yeast as Aga2-HA-CA9-MYC (pPNL6), clone 5 A + B (human, UniProt P32781 19-87 (Saccharomyces cerevisiae entry)); test: as above
T10 construct: not shown: HA tag; MYC tag

[7] = target: T11, hCA-IX PG domain fragment #6 (aa 87-101) displayed on yeast as Aga2-HA-CA9-MYC (pPNL6), clone 6 A + B (human, UniProt P32781 19-87 (Saccharomyces cerevisiae entry)); test: as above
T11 construct: not shown: HA tag; MYC tag

[8] = target: T12, hCA-IX PG domain fragment #7 (aa 97-111) displayed on yeast as Aga2-HA-CA9-MYC (pPNL6), clone 7 A + B (human, UniProt P32781 19-87 (Saccharomyces cerevisiae entry)); test: as above
T12 construct: not shown: HA tag; MYC tag

[9] = target: T13, hCA-IX PG domain fragment #8 (aa 107-121) displayed on yeast as Aga2-HA-CA9-MYC (pPNL6), clone 8 A + B (human, UniProt P32781 19-87 (Saccharomyces cerevisiae entry)); test: as above
T13 construct: not shown: HA tag; MYC tag

[10] = target: T14, hCA-IX PG domain fragment #9 (aa 117-131) displayed on yeast as Aga2-HA-CA9-MYC (pPNL6), clone 9 A + B (human, UniProt P32781 19-87 (Saccharomyces cerevisiae entry)); test: as above
T14 construct: not shown: HA tag; MYC tag

[11] = target: T15, hCA-IX PG domain fragment #11 (aa 37-71) displayed on yeast as Aga2-HA-CA9-MYC (pPNL6), clone 11 A + B (human, UniProt P32781 19-87 (Saccharomyces cerevisiae entry)); test: as above
T15 construct: not shown: HA tag; MYC tag

[12] = target: T16, hCA-IX PG domain fragment #12 (aa 67-111) displayed on yeast as Aga2-HA-CA9-MYC (pPNL6), clone 12 A + B (human, UniProt P32781 19-87 (Saccharomyces cerevisiae entry)); test: as above
T16 construct: not shown: HA tag; MYC tag

[13] = target: T17, hCA-IX PG domain fragment #13 (aa 107-140) displayed on yeast as Aga2-HA-CA9-MYC (pPNL6), clone 13 A + B (human, UniProt P32781 19-87 (Saccharomyces cerevisiae entry)); test: as above
T17 construct: not shown: HA tag; MYC tag

[14] = target: T18, hCA-IX PG domain fragment #14 (aa 37-140) displayed on yeast as Aga2-HA-CA9-MYC (pPNL6), clone 14 A + B (human, UniProt P32781 19-87 (Saccharomyces cerevisiae entry)); test: as above
T18 construct: not shown: HA tag; MYC tag

[15] = target: T19, dimeric CA-IX extracellular domain (ECD) from mouse (mouse, UniProt Q8VHB5 32-390); test: SPR, antibody captured by anti-human Fc, specific binding yes/no
T19 construct: extracellular domain

[16] = target: hCA-IX fragment 8 (aa 38-414, +PG+CA+) displayed on yeast as Aga2-HA-CA9-MYC (pPNL6), clone 8B (human, UniProt P32781 19-87; Q16790 38-414); test: YSD whole yeast cell ELISA, native, normalised to anti-MYC; native fragment on yeast (Table 7)
Sequence of hCA-IX fragment 8 (aa 38-414, +PG+CA+) displayed on yeast as Aga2-HA-CA9-MYC (pPNL6), clone 8B (P32781 19-87 limits assumed, chain 1 of 2, other chains not shown): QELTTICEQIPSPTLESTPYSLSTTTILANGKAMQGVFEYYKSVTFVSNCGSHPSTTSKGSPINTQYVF

T2 sequence (P22748 19-283 limits assumed): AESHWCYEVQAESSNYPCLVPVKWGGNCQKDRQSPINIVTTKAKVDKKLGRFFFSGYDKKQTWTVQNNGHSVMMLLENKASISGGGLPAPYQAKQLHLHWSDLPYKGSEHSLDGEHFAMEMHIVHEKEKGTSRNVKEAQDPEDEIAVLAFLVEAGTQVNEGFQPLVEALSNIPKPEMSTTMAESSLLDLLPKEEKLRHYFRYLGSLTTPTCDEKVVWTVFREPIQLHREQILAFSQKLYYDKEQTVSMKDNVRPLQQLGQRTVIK
T16 sequence (P32781 19-87 limits assumed, chain 1 of 2): as the sequence (P32781 19-87 limits assumed, chain 1 of 2, other chains not shown) above
T16 sequence (chain (part 2 of 2), as listed by the source limits assumed, chain 2 of 2): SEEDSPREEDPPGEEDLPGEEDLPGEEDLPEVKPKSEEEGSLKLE
T1 sequence (P32781 19-87 limits assumed, chain 1 of 2, other chains not shown): as the sequence (P32781 19-87 limits assumed, chain 1 of 2, other chains not shown) above
T15 sequence (P32781 19-87 limits assumed, chain 1 of 2): as the sequence (P32781 19-87 limits assumed, chain 1 of 2, other chains not shown) above
T15 sequence (chain (part 2 of 2), as listed by the source limits assumed, chain 2 of 2): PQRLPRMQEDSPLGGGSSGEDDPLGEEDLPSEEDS
T10 sequence (P32781 19-87 limits assumed): as the sequence (P32781 19-87 limits assumed, chain 1 of 2, other chains not shown) above
T17 sequence (P32781 19-87 limits assumed, chain 1 of 2): as the sequence (P32781 19-87 limits assumed, chain 1 of 2, other chains not shown) above
T17 sequence (chain (part 2 of 2), as listed by the source limits assumed, chain 2 of 2): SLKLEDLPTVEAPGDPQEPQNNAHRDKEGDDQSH
T18 sequence (P32781 19-87 limits assumed, chain 1 of 2): as the sequence (P32781 19-87 limits assumed, chain 1 of 2, other chains not shown) above
T18 sequence (chain (part 2 of 2), as listed by the source limits assumed, chain 2 of 2): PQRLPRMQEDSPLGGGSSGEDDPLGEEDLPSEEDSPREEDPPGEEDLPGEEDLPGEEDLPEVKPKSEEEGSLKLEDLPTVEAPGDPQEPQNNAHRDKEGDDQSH
T9 sequence (P32781 19-87 limits assumed): as the sequence (P32781 19-87 limits assumed, chain 1 of 2, other chains not shown) above
T13 sequence (P32781 19-87 limits assumed): as the sequence (P32781 19-87 limits assumed, chain 1 of 2, other chains not shown) above
T14 sequence (P32781 19-87 limits assumed): as the sequence (P32781 19-87 limits assumed, chain 1 of 2, other chains not shown) above
T8 sequence (P32781 19-87 limits assumed): as the sequence (P32781 19-87 limits assumed, chain 1 of 2, other chains not shown) above
T6 sequence (P32781 19-87 limits assumed): as the sequence (P32781 19-87 limits assumed, chain 1 of 2, other chains not shown) above
T12 sequence (P32781 19-87 limits assumed): as the sequence (P32781 19-87 limits assumed, chain 1 of 2, other chains not shown) above
T11 sequence (P32781 19-87 limits assumed): as the sequence (P32781 19-87 limits assumed, chain 1 of 2, other chains not shown) above
T7 sequence (P32781 19-87 limits assumed): as the sequence (P32781 19-87 limits assumed, chain 1 of 2, other chains not shown) above
T4 sequence (Q9ULX7 16-290 limits assumed): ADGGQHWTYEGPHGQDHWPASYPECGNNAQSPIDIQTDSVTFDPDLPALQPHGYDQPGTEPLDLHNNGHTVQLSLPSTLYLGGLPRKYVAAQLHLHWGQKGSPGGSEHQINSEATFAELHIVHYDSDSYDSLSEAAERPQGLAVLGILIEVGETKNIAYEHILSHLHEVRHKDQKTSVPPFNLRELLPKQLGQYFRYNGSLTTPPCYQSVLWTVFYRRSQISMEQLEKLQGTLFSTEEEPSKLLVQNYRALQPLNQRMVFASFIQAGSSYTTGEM
T5 sequence (Q8VHB5 32-389 limits assumed): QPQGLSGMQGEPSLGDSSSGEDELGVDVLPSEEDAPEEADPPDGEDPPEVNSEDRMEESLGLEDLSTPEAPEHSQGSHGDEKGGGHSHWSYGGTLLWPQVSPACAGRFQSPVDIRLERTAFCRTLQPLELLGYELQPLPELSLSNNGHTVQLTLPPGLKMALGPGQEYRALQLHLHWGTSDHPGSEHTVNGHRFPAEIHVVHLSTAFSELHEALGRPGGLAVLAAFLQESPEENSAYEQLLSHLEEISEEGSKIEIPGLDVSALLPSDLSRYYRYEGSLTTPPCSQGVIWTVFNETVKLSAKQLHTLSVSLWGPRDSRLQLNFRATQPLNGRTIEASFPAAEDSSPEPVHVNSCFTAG
T3 sequence (O43570 25-291 limits assumed): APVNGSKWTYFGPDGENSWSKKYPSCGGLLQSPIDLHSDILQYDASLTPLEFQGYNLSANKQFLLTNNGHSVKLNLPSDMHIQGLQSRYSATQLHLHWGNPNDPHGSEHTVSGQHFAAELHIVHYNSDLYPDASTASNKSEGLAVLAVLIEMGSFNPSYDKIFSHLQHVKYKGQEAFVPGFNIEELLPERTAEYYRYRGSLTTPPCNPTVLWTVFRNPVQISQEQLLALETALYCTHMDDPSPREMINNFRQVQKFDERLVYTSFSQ
T19 sequence (Q8VHB5 32-390): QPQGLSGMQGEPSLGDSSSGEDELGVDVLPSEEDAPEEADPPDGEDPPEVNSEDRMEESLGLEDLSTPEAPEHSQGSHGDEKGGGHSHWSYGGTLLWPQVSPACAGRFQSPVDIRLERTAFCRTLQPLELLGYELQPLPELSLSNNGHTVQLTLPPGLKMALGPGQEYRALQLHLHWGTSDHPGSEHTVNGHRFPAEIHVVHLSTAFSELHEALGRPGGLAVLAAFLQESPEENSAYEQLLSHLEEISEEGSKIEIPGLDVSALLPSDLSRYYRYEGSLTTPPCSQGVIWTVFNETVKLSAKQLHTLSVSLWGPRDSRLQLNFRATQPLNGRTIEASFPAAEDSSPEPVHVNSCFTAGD

B1: c2C7 (chimeric 2C7, human IgG1 / human kappa 1) (antibody, V domains shown)
VH: QVQLQQSGPELVKPGASVRISCKASGFTFTSCYIHWMKQRPGQGLEWIGWIYPGNGNTKYNEIFKGRATLTTDKSSSTAYMQLSSLTSEDSAVYFCARGDTTANTMDYWGQGTSVTVSS
VL: DIQMTQSPASLSASVGETVTITCRASGNIHNYLAWYQQKQGKSPQLLVYNTITLADGVPSRFSGSGSGTQYSLKINSLQPEDFGSYYCQHFWNIPFTFGAGTKLELKR
notes: Expressed in CHO cells
[1]
  binding result: no binding
rhCA-IV
  binding result: no binding (tested: 100 nM)
rhCA-XII
  binding result: no binding (tested: 100 nM)
rhCA-XIV
  binding result: no binding (tested: 100 nM)
rmCA-IX
  binding result: no binding (tested: 100 nM)
[2]
  binding result: no binding
[3]
  binding result: no binding
[4]
  binding result: no binding
[5]
  binding result: no binding
[6]
  binding result: no binding
[7]
  binding result: no binding
[8]
  binding result: no binding
[9]
  binding result: no binding
[10]
  binding result: no binding
[11]
  binding result: no binding
[12]
  binding result: no binding
[13]
  binding result: no binding
[14]
  binding result: no binding
[15]
  binding result: no binding
[16]
  binding result: binds
